Patent US20220054955A1

Target: GST
Experiment: photo-crosslinking of 7 mg/ml GST with 1 mM aziethyl glutathione (337 nm, 30 minutes), whole-protein LCMS

Q: With aziethyl glutathione as the substance, how does the percent of GST molecules covalently crosslinked read?
A: 40%
